The text below walks through data of PMC5025654.

Usually stoichiometry N stands for a count of units in the complex or per binding partner.

The target in test [1] is TGF-β1 of the porcine enamel matrix (porcine (endogenous in porcine enamel)). The test can be described thus: co-elution on RP-HPLC, TGF-β1 quantified by ALP-inducing activity of HPDL cells; amelogenins as purified from enamel (before the in vitro binding); ng of TGF-β1 per mg of amelogenin calculated from standard CF-hTGF-β1 (0.3 ng mL^-1), after dilution correction; complexes formed in vivo.
TGF-β1 of the porcine enamel matrix (porcine (endogenous in porcine enamel)), sequence (P07200 30-390): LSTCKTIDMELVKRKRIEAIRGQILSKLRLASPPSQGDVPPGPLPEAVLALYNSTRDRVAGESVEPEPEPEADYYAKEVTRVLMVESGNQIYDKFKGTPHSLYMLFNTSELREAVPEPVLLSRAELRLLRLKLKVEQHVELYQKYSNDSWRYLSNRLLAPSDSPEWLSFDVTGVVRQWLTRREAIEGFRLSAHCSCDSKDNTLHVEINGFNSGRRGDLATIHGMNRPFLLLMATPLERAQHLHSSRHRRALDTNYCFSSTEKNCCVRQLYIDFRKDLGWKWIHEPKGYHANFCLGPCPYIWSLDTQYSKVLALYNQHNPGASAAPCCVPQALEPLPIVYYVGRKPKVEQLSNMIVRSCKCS

The target in test [2] is carrier-free recombinant human TGF-β1 (human). The test can be described thus: in vitro binding, RP-HPLC, TGF-β1 quantified by ALP-inducing activity of HPDL cells; purified amelogenin mixed with CF-hTGF-β1 or rh-latent TGF-β1, fractions from RP-HPLC tested in the ALP-HPDL system; ng per mg of amelogenin calculated from standard CF-hTGF-β1 (0.3 ng mL^-1), after dilution correction; details in the Supplementary Methods.

For test [3], the target named is TGFBR1 of porcine enamel organ epithelia (porcine (endogenous in enamel organ epithelia)) (UniProt Q5CD18).
TGFBR1 of porcine enamel organ epithelia (porcine (endogenous in enamel organ epithelia)), sequence (Q5CD18 30-503): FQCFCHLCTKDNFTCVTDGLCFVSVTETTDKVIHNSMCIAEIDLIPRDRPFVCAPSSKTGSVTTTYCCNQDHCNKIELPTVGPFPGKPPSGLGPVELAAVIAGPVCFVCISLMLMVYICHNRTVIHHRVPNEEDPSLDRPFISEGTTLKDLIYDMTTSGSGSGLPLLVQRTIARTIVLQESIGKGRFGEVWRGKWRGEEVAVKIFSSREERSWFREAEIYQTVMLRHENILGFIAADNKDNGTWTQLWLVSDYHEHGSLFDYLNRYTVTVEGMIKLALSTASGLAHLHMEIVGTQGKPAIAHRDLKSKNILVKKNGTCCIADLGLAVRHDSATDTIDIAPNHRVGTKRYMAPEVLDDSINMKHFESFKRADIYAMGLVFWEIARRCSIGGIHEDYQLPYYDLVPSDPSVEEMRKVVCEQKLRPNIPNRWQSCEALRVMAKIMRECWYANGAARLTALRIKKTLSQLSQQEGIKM
Test [4] has as its target P103 amelogenin (porcine). Nature of the test: dynamic light scattering; multi-angle DLS, 25.0 °C, Tris; D extrapolated to zero concentration (D0), RH by Stokes-Einstein, Mw from an empirical RH-Mw relation; P103-1 and P103-2 amelogenins and original P103 amelogenin at c < 4.0 mg mL^-1; RH 2.57 nm.
Test [5] addresses TGF-β1 of the porcine enamel matrix (porcine (endogenous in porcine enamel)).
For test [6] the target is unchanged. Nature of the test: dynamic light scattering; multi-angle DLS, 25.0 °C, Tris; original (TGF-β1-bound) P103 amelogenin at c > 6.0 mg mL^-1 (Line 1), D extrapolated to D0; RH 3.21 nm, Mw from an empirical RH-Mw relation; complex formed in vivo.

P103 amelogenin-TGF-β1 complex, sequence (P07200 whole entry, looked up, one chain of several): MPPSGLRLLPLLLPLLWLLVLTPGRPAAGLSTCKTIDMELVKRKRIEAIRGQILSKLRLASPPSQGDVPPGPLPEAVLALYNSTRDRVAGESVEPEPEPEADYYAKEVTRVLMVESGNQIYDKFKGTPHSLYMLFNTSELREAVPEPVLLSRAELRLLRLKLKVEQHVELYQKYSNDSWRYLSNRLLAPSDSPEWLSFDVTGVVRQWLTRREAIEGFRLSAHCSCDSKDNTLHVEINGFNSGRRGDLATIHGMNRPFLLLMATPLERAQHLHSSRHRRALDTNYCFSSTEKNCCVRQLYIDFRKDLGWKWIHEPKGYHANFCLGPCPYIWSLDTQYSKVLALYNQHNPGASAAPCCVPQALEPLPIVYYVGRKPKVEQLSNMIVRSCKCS

Turning to P148 amelogenin (domain or fragment), in test [1], the original TGF-β1, ng against 1 mg of amelogenin was 0.263 ng. Moreover, the bound TGF-β1, ng against 1 mg of amelogenin in test [2] was 1.06 ng.
On the same counts, the results for P162 amelogenin (domain or fragment) are 0.201 ng and 1.17 ng.
The substance “P103 amelogenin-TGF-β1 complex (from UniProt P07200 279-390)” came in with a TR-FRET TGFBR1 kinase assay (phosphorylation of ULight-Topo IIα peptide, 5 mM ATP), FRET signal after 12 h with the complex added, against the control without addition (% higher than the control) in test [3] of 5.
Take P103 amelogenin (domain or fragment): in test [1], the original TGF-β1, ng against 1 mg of amelogenin was 0.797 ng. Further, the bound TGF-β1, ng against 1 mg of amelogenin in test [2] was 1.08 ng. The stoichiometry N in test [4] was 3. In test [5], this substance came in with an ALP-inducing activity of HPDL cells left after digestion of the P103 amelogenin-TGF-β1 complex with pKLK4 for 20 h, compared to the level before digestion (CF-hTGF-β1 alone: 8%) of 70%. Also, the stoichiometry N (amelogenin trimer per TGF-β homodimer) in test [6] is 1.
